Laboratory results: paper PMC10948360, “Tropomyosin 1-I/C coordinates kinesin-1 and dynein motors during oskar mRNA transport” (Nature Structural & Molecular Biology, 2024)

T1: Khc motor domain (Khc 1-365) (Drosophila, UniProt P17210 1-365)
T1 construct: Kinesin heavy chain (Khc), Drosophila, amino acids 1-365 (motor domain); GST removal with 3C protease is stated for NMR; for the pull-down the prey is printed as Khc 1–365 without GST; source: E. coli BL21-CodonPlus(DE3)-RIL, purified (GSTrap, SEC)
T1 sequence (looked up): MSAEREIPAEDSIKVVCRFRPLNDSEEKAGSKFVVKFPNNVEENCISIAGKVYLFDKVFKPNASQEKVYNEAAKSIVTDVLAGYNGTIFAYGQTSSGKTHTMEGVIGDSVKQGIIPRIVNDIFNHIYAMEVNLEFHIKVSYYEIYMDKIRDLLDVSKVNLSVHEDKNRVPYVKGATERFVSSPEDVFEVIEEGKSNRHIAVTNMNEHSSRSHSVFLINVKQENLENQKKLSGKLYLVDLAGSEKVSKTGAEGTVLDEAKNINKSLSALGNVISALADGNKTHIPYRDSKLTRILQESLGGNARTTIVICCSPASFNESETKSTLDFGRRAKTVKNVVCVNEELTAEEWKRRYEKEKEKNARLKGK


Legend:
[1] = molecular target: T1, Khc motor domain (Khc 1-365); test: NMR titration; 1H-15N HSQC of 50 µM 15N-labeled Khc 855–975 at 298 K, 25 mM NaPO4 pH 6.5, 150 mM NaCl; unlabeled partners added, with or without U10 RNA; conditions: both partners purified
[2] = molecular target: T1, Khc motor domain (Khc 1-365); test: pull-down; GST-Khc 855–975 (5 or 10 µM) as bait on glutathione Sepharose, 50 µM Khc 1–365 as prey, Tm1 1–335 at 5 to 15 µM; GF150 buffer, 4 °C; conditions: both partners purified

| binding result [1] | binding result [2] | Binder |
| --- | --- | --- |
| binds | – | Khc tail (Khc 855-975) (domain or fragment, 15N-labeled (13C,15N for assignment) in the NMR experiments; used unlabeled in microtubule pelleting; also called tail domain) not shown |
| – | binds | GST-Khc 855-975 (domain or fragment) not shown |
